Test results as given in the DeepSol protein solubility set.

assay: soluble on expression in E. coli; label from the status in PepcDB or PDB records

| Sequence | soluble on expression in E. coli |
| --- | --- |
| MAHHHHHHSLIDGLLITELNKLTPGSSYIFLDYDGTLVPIIMNPEQSLADPELIEMLTELRSKYKLFIVSGRSPEEIKRFIPLDLNLICYHGACSIVNGKTYYYNNAQSFLGIFNEIYQSSLNLVNEFPGLRIYKKNLAVLYHFGLMKPQDVPALERVIVEISQKEHVDVYKGKMIFELRVPGVNKGIAIKNVRDEETALIAGDDATDECSFKYNEDAITIKVGPGKTSAHFRVNDYSEMREVLKLLLNNAEKRSEG | soluble |
| MMKNFVCTTCGVQYAASVEEPVSCHICDEERQYVNPKGQSWTTLENLQTDDTYKNEIIKEENGLYSITTKPGFAIGQTAFVVKTESYRLLWDCITYLDETTITKIKELGGLDAIALSHPHYYSTQVEWAETFDVPIYIHEDDKEWVMRPSSRIIYWSGESLQLADGITVHRLGGHFSGGSVLHWEEGNDGKGILLTGDIIQVVADERWVSFMYSYPNLIPLPARKVEEMVNRVKPLQFNRLYNAFHRVVKENANEAVERSAERYIKAIEGKLFHT | not soluble |
| MGIPSDFSNTGLTGFNVSSTKLVKIEQQYKGVKGKKFISPGGGKFVRIDDPGAVDSNGLRTADASNTSISLETGNTWLPRLHADGTLTCGGKCAWLECTNVTIPKNKRLWFRYAFLRFSSLPADSFSVLLCFPNDDTSVPPLPPYWICSVKELQENRGNINQTDWTECFVEIDKNADFHGTLRWVVATGHNLADQNSIPDNTRFTRPGCLLIDAIDIR | not soluble |
| SHMQSRELKTVSADCKKEAIEKCAQWVVRDCRPFSAVSGSGFIDMIKFFIKVKAEYGEHVNVEELLPSPITLSRKVTSDAKEKKALIGREIKSAVEKDGASATIDLWTDNYIKRNFLGVTLHYHENNELRDLILGLKSLDFERSTAENIYKKLKAIFSQFNVEDLSSIKFVTDRGANVVKSLANNIRINCSSHLLSNVLENSFEETPELNMPILACKNIVKYFKKANLQHRLRSSLKSECPTRWNSTYTMLRSILDNWESVIQILSEAGETQRIVHINKSIIQTMVNILDGFERIFKELQTCSSPSLCFVVPSILKVKEICSPDVGDVADIAKLKVNIIKNVRIIWEENLSIWHYTAFFFYPPALHMQQEKVAQIKEFCLSKMEDLELINRMSSFNELSATQLNQSDSNSHNSIDLTSHSKDISTTSFFFPQLTQNNSREPPVCPSDEFEFYRKEIVILSEDFKVMEWWNLNSKKYPKLSKLALSLLSIPASSAASERTFSLAGNIITEKRNRIGQQTVDSLLFLNSFYKNFCK | soluble |
| MAKIGLFFGSDTGTTRKIAKQIKDMFDDEVMAKPLNVNRADVADFMAYDFLILGTPTLGDGQLPGLSANAASESWEEFLPRIADQDFSGKTIALFGLGDQVTYPLEFVNALFFLHEFFSDRGANVVGRWPAKGYGFEDSLAVVEGEFLGLALDQDNQAALTPERLKGWLSLIAADFGLVLPA | soluble |
| MIIQCQVKSVQPLATHTYQILLQPEHAVAYQAGQYLMVVMGEKDKRPFSLASSPCRSNGELELHIGAADHSAFAHQVVEKFQQAHLNQTWVEVDVPHGNAALQESERPLLLIAGGTGFSYVRSILDHCLSQGKTQPIYLYWGARDAAQLYALNELQELAKQHAHLQVVPVVEQAQDDWAGKVGNVLQAINNDFASLEAFDIYIAGRFEMAGAAREQFTQNKQARRDRMFADAYAFI | not soluble |
| MAIYTVKALITDPIDEILIKTLREKGIQVDYMPEISKEELLNIIGNYDIIVVRSRTKVTKDVIEKGKKLKIIARAGIGLDNIDTEEAEKRNIKVVYAPGASTDSAVELTIGLMIAAARKMYTSMALAKSGIFKKIEGLELAGKTIGIVGFGRIGTKVGIIANAMGMKVLAYDILDIREKAEKINAKAVSLEELLKNSDVISLHVTVSKDAKPIIDYPQFELMKDNVIIVNTSRAVAVNGKALLDYIKKGKVYAYATDVFWNEPPKEEWELELLKHERVIVTTHIGAQTKEAQKRVAEMTTQNLLNAMKELGMI | soluble |
| MGSDKIHHHHHHMEKQSDSYYISAVQAGDTESFAPLVERYSDMLYALLCRLLQDEEDAADLLQDTFVKAFRHISRFDGRSSFSTWIYRIAYNEAIDHLRRHKAYVTDRVEELPDVPDEDLEPSGEDPELLQQALDSLPAADKALLLMFYSDDLSVRDIAEVTGMSESNVKVKLHRLRTKLYKMMRK | not soluble |
| MIKKLPLFIIVCLLAISSQALAETELEIEGLEGPLLSNVEAYISGIPEEDYSVSLRFQARLQESITDALKALGYYQSTTTFVVEGDTSDRTLLVNIDAGQPVIIYVSDIVISGEAAADEDFINAVDNSGLNLGQVINHGRYESLKSTLQNLALRKGYFDGDFTTNRLEIAPGRHQAIVRIHYDSGKRYSFGETSIDGSQIEEKRVRSIIPFQAGDPYLASQVGELNQYLSNTEWFSSVYVEPDIDAVGKTYQLPMKVHLSPQVRNQLETSIGYATDVGARGKIRWKKPWLNPEGHSLDTALSISKPEQEATISYKIPLEQVLKDYYVVKYGLKNVDNNDTDSLESNLAFERHWVYDSGWHRTIYTRFLYEEFTQGVQDGTAWLVLPGISFSKSRSRGGTMPMWGDKKAFTIEATDQALTSDVKLLRLQAQGAIVRSIGENHRGVARADIGAIYTDDFYKLPPSIRFFAGGDNSIRGYGYEEVSPKDSEGYLTGGQYMATASLEYQYRVVGNWWVATFVDYGDAWLDTPDWKMGTGVGIRWASPVGPVRLDFAWGLDAEPGDEFKIHFTLGPEVLEHHHHHH | soluble |
| MSLSAGDSMPGPKSTFRVGVWEDRNKKCRRTMEDTHAFLYNFVQTPALNDASAKDKPEGDDLVTSDMVESDNGYFAIFDGHAGTFAADWCGKKLHIILEDIIRKNPNALIPEVLDQAFTAADAQLEKLPLKNSGCTAAVAVLRWEDRASNDRSAIKPVKPEEPIEMDKANDGSSNEEATKATNSKGKGSGRQRVLYTANVGDARIILCRGGKALRLSYDHKGSDEVEGKRIAAAGGLILNNRVNGVLAVTRALGDAYMKKLVTGHPYTTETVIQPDSDEFIIIACDGIWDVCSDQEAVDLVRNVNDPISASKQLVDYALNRFSTDNLSCMVVRLDQNKEAAVEEGHHHHHH | soluble |
| MNILKIRHGQGHIAKIEAQSFVDGEGVRCSLYVSGCPFACENCYNKVAQNFKYGEPFHEDTLEEIMEYCAPNYISGLSILGGEPFCNVDITLKCAQTFRKRFGNTKSLWVWTGFLFEYLERDSAERKTLLELIDVLVDGPFINHLYRPNLPYKGSMNQRVIDVQASLQKRRVCEYIKSLEHHHHHH | not soluble |
| METKYRKPFVYEFITEKEVMNAANDLVKKGIEQKDIYVLTHEKERTDRIADNADVNTIGIKEEGLGTSIINVFQKTGDQLRNKMQELGLNEEEANFYEEKLDEGKILLFVKDLERVGEWLHERRCMYSI | not soluble |
| MNEQWLEHLPLKDIKEISPVSGGDVNEAYRVETDTDTFFLLVQRGRKESFYAAEIAGLNEFERAGITAPRVIASGEVNGDAYLVMTYLEEGASGSQRQLGQLVAQLHSQQQEEGKFGFSLPYEGGDISFDNHWQDDWCTIFVDKRLDHLKDELLNRGLWDANDIKVYDKVRRQIVAELEKHQSKPSLLHGDLWGGNYMFLKDGRPALFDPAPLYGDREFDIGITTVFGGFTSEFYDAYNKHYPLAKGASYRLEFYRLYLLMVHLLKFGEMYRDSVAHSMNKILQDTTSLEHHHHHH | not soluble |
| METIKISEQELINALCIYIAEKRQVGPEEVLVELMYDDDYGFSAEVEVNGRQQILIQANLIEALRLLLDREYNVNPFAARLQLELDDEEGIYALAKFNNSDD | not soluble |
| MQQFHIRRLREEDIPLLKGLLVELDTSHYEAEPNFYRSPEEMAQLREERGVFDKYFDDSMIAFIACSHRQVVGFISGTVRDIDSMVSVAKRVGFVNELVVSESHRNLGIGLSLMDKIESDLCNQGIEEIGLTVASFNHEGEDFYHKMGYRVMTKMMSKRVKDLEHHHHHH | soluble |
| MGSDKIHHHHHHMNQHTLLPKKTERLQYFGSVSPIKGEKPVEKEKMKDLQNIRKDYFFDIQHVGVANVSHPVTITSAMMPAEQTTAANFTMTCNLPRNQKGINMSRLTELLQVYHQNGWILSFSSLQQFTKELAENMDTSSATVEVRFPWFFERKSPKLEKAGLMHADIFMSVTYRKDQPFKQRAGISAKVTTLCPCSKEISEYSAHNQRGTVKHLGRIFTRAASLPSDVKADLPHAAESNASARLHPVLKRPDEKAVTETAYENPRFVEDLARLIAADLFELEWVSAFEIECRNEESIHLHRCLCEVCFSKEVDKI | not soluble |
| DVTGLPTGFRDLDRITTGLHPDQLIILAARPAVGKTAFVLNIAQNVGTKQNRPVAIFSLEMGAESLVDRMLAAEGMVDSHSLRTGQLTDQDWNNVTIAQGALADAPIYIDDTPGIKITEIRARSRKLSQEVDDGLGLIVIDYLQLISGTRPENRQQEVSEISRQLKILAKELKVPVIALSQLSRGVEQRQDKRPVLSDI | not soluble |
| MAHHHHHHSLKKPTHSGSGQIRIIGGQWRGRKLPVPDSPGLRPTTDRVRETLFNWLAPVMVDAHCLDCFAGSGALGLEALSRYAAQATLLEMDRAVSQQLQKNLATLKANNARVVNTNTLTFLSQPGTPHHVVFVDPPFRKGLLEETLQLLETQGWLADDALIYVESEVENGLPPVPANWALYREKVAGQVAYRLYQRDAQGENDVD | soluble |
| MAHHHHHHMAPPSSSACDPRVYLHERVRQHYLEVLPSRWRAVLFRLAKNTQLRQKNDVIVETHLLSEMQADFDLIHALLDEEHRVYREGVACLCSQASNGKSETERWTASRHLLQGMLSCIAMKEILIAHWKNDLVDISPNTLRVYCHACISHPHVSETDIERLLALYAVS | not soluble |
| MGSDKIHHHHHHMDHQYTTLERNRYFEVLGGLNVENRGDNKVAMLSELDMTSAQALRTSVDRQTGIKPSYTAIVAKAVSIALREHPYANRMAVERLFWKRILQLHDVHMTIAVERDRPGIEQAVFAGTIRDTDKLDVAAITKELQSLAQSTEETNERWRLLKRMVETLPPALARRLISIPRWLPDQWIKHRGGSVMISSPAKYGVDMMVANWPWPIGYSFGLVKDRVIAVEGAAQVRPTMVLTMSFDRRLMGGAPAARFFRTVCEHIEHAERDMALPVNIPS | not soluble |
| MSLRSDLINALYDENQKYDVCGIISAEGKIYPLGSDTKVLSTIFELFSRPIINKIAEKHGYIVEEPKQQNHYPDFTLYKPSEPNKKIAIDIKTTYTNKENEKIKFTLGGYTSFIRNNTKNIVYPFDQYIAHWIIGYVYTRVATRKSSLKTYNINELNEIPKPYKGVKVFLQDKWVIAGDLAGSGNTTNIGSIHAHYKDFVEGKGIFDSEDEFLDYWRNYERTSQLRNDKYNNISEYRNWIYRGRK | soluble |
| MAHHHHHHMAAGSAEEAVALMKSAEKHSQKKFFKRPDWDAAASEYERAARIYTHLEDTNRATDAWRKASGAHQNAENNFFAARAMESLAVFLTEQSRKGMADDTSLLNNAVESYCDASKLYAFNEMFDRQADCLKKAAEIINPTKTIVTGLPATEAGSSQVKQRMQQVVGLFREGVSVLEEHIEDKPVVAVQLSELYRNWMLTHLHNGDVKGAVEVLEEQLGIRADPHKKGVFERLAQPHNSAKAGLEITVLCLSCGDDVWARQEMNKLRGVPGFSTSNEEATANALISSFEERDEEQLRAAMKNQTLQFITIDISRMSRKLKIQFSAPQRTNMTSSSLPNPSLPNEQQQGEEQQEADIDPEEDIR | not soluble |
